Assay results from paper PMC2730839.

Substrate: O=C(O)C(=O)c1ccccc1
Assay: steady-state kinetics
Format: biochemical, Pseudomonas putida
Conditions: thiamin diphosphate (ThDP), Mg2+ active site

B1: benzoylformate decarboxylase (BFDC) (Pseudomonas putida) (protein)
chain: MASVHGTTYELLRRQGIDTVFGNPGSNELPFLKDFPEDFRYILALQEACVVGIADGYAQASRKPAFINLHSAAGTGNAMGALSNAWNSHSPLIVTAGQQTRAMIGVEALLTNVDAANLPRPLVKWSYEPASAAEVPHAMSRAIHMASMAPQGPVYLSVPYDDWDKDADPQSHHLFDRHVSSSVRLNDQDLDILVKALNSASNPAIVLGPDVDAANANADCVMLAERLKAPVWVAPSAPRCPFPTRHPCFRGLMPAGIAAISQLLEGHDVVLVIGAPVFRYHQYDPGQYLKPGTRLISVTCDPLEAARAPMGDAIVADIGAMASALANLVEESSRQLPTAAPEPAKVDQDAGRLHPETVFDTLNDMAPENAIYLNESTSTTAQMWQRLNMRNPGSYYFCAAGGLGFALPAAIGVQLAEPERQVIAVIGDGSANYSISALWTAAQYNIPTIFVIMNNGTYGALRWFAGVLEAENVPGLDVPGIDFRALAKGYGVQALKADNLEQLKGSLQEALSAKGPVLIEVSTVSPVK
- Km: 760 ± 90 µM
